“Also recorded” adds a separate entry of the source.
Key:
[1] = Body weight and tolerability in LI1097 tumor-bearing mice; assay type: in vivo; settings: for body weight loss observed in treated mice: mean; for tolerability / toxic events (in words): LI1097 tumor-bearing mice, antibody 20 and 50 mg/kg i.v., sorafenib 50 mg/kg p.o.
Description: When individual mouse has a body weight loss ≥20%, the mouse will be given dosing holiday(s) until its body weight recovers to the baseline.
All the procedures related to animal handling, care, and the treatment in this study were performed according to guidelines approved by the Institutional Animal Care and Use Committee (IACUC) of CrownBio following the guidance of the Association for Assessment and Accreditation of Laboratory Animal Care (AAALAC). At the time of routine monitoring, the animals were checked for any effects of tumor growth on normal behavior such as mobility, food and water consumption (by looking only), body weight gain/loss, eye/hair matting and any other abnormal effect. Death and observed clinical signs were recorded on the basis of the numbers of animals within each subset.
Under following conditions, the in-life experiment of individual animal or whole groups will be terminated, by humane euthanization, prior to death, or before reaching a comatose state. • In a continuing deteriorating condition with severe clinical signs of severe distress and/or pain, inaccessible to adequate food or water; • Significant body mass (emaciated) (>20%); • Individual mouse with tumor size exceeding 3000 mm^3 or MTV>2000 mm^3.

[2] = test system: HuPrime® HCC xenograft model LI1097; assay: Efficacy study in HuPrime HCC xenograft model LI1097 (tumor volume, TGI, T/C, T-C); assay type: in vivo, BALB/c nude mice; settings: for Tumor Volume: mean ± SEM; for anti-tumor activity against HCC xenograft (in words): LI1097, compared with sorafenib
Source text: To evaluate preclinically the in vivo efficacy of GamaMabss' anti-AMHR2 monoclonal antibody, named GM102 in the treatment of Huprime® HCC xenograft model LI1097 in Balb/C nude mice. The model LI1097 was selected after a screening for AMHR2 transcription processed by CrownBio, using RNAseq (transcriptome sequencing). Further, AMHR2 membranous protein expression of this model was confirmed by Institut Curie, France, using IHC.
• Strain: BALB/c Nude • Age: 7-8 weeks (Treatment starting) • Gender: female • Total #: 32 mice plus spare
• HuPrime® Liver cancer model L11097 derived from a HCC patient was selected for this efficacy study. This model reached 1000 mm^3 in 20-25 days post inoculation.
• Product identification: GamaMabs's Ab (3C23K) • Manufacturer: GamaMabs Pharma • Lot number: R18H2-LP01 • Batch: 04GAM140513API • Quantity needed: 255 mg based on animal BW of 25 g with 50% spare • Package and storage condition: [30 ml/tube], 30 ml, [2-8° C.] • Concentration: 10.1 g/L • Product identification: Sorafenib • Manufacturer: Melonepharma • Lot number: D1111A • Quantity needed: 300 mg based on animal BW of 25 g with 50% spare • Package and storage condition: 400 mg, [RT]
Tumor fragments from stock mice inoculated with selected primary human cancer tissues were harvested and used for inoculation into BALB/c nude mice. Each mouse was inoculated subcutaneously at the right flank with primary human HCC model LI1097 fragment (R12P4, 2-4 mm in diameter) for tumor development on Jun. 9, 2015. The parent mouse number was #80150. #80151 and #80153. The mice were grouped when the average tumor size reached about 145 mm^3 on Jun. 24, 2015. Mice were allocated randomly into 4 experimental groups according to their tumor sizes. Each group consisted of 8 mice, 4 mice per cage. The day was denoted as day 0. The test articles were administered to the tumor-bearing mice from day 0 (Jun. 24, 2015) through day 27 (Jul. 21, 2015) according to pre-determined regimen shown in Section 1.1 Experimental Design.
Tumor size were measured twice weekly in two dimensions using a caliper, and the volume is expressed in mm^3 using the formula: TV=0.5 a×b^2, where a and b are the long and short diameters of the tumor, respectively. The tumor size is then used for calculations of TGI, T/C, and T-C values according to the description in the Table 2 in Abbreviations.
The study was ended after 28 days treatment and mice were sacrificed.
Summary statistics, including mean and the standard error of the mean (SEM), are provided for the tumor volume of each group at each time point. Statistical analysis of difference in tumor volume among the groups was evaluated using a one-way ANOVA followed by multiple comparisons using Games-Howell. All data were analyzed using SPSS 16.0. P<0.05 was considered to be statistically significant.

[3] = target: T1, AMHRII (form used for the Kd not stated) (human, UniProt Q16671 18-149, limits assumed)
T1 construct: Neither the construct nor the assay behind the Kd is described

[4] = test system: Champions TumorGraft® model CTG-0401 (human colorectal cancer); assay: Efficacy study in model CTG-0401 of human colorectal cancer; assay type: in vivo, Athymic Nude-Foxn1nu mice; settings: 20 mg/kg IP BIWx4; comparator Irinotecan 100 mg/kg IP Q7Dx3; listed as GM102
Description: Stock mice (Athymic Nude-Foxn1^nu from Envigo) were implanted with tumor fragments from Champions TumorGraft® model CTG-0401. After the tumors reached 1000-1500 mm^3, they were harvested and the tumor fragments were implanted SC in the left flank of the female study mice. Each animal was implanted with a specific passage lot: passage 6 for CTG-0401. Tumor growth was monitored twice a week using digital calipers and the tumor volume (TV) was calculated using the formula (0.52×[length×width^2]). After the tumor volume reached 175±7 mm^3, mice were selected based on their tumor size and were randomly allocated into 4 groups of 12 animals per group (Day 0). After the initiation of dosing on Day 0, animals were weighed twice per week using a digital scale and TV was measured twice per week and also on the final day of study. The study was terminated when the mean tumor volume in the vehicle control group reached 1500 mm^3 or up to Day 60, whichever occurred first.

[5] = 50 mg/kg, QD × 4 weeks, p.o., day 13
[6] = 20 mg/kg, BIW × 4 weeks, i.v., day 13
[7] = 50 mg/kg, BIW × 4 weeks, i.v., day 13

T1 sequence (Q16671 18-149 limits assumed): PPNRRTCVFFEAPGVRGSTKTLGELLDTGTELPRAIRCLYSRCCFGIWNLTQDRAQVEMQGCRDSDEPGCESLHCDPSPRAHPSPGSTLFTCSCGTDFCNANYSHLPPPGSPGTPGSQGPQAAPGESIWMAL

CNC(=O)c1cc(Oc2ccc(NC(=O)Nc3ccc(Cl)c(C(F)(F)F)c3)cc2)ccn1 [Sorafenib, reference compound]
body weight change at study termination ([1]; 50 mg/kg, QD × 4 weeks, p.o.): −7.63%
mean maximum body weight loss ([1]; 50 mg/kg, QD × 4 weeks, p.o., day 27 of treatment): 7.63%
body weight loss observed in treated mice ([1]; 50 mg/kg, QD × 4 weeks, p.o.): 7%
body weight loss observed in treated mice ([1]; 50 mg/kg, QD × 4 weeks, p.o., listed as sorafenib): up to 7%
T-C (days) at 1000 mm^3 ([2]; 50 mg/kg, QD × 4 weeks, p.o.): 8 days
Tumor Volume ([2]; 50 mg/kg, QD × 4 weeks, p.o., day 0): 145.18 ± 16.97 mm^3
Tumor Volume ([2]; 50 mg/kg, QD × 4 weeks, p.o., day 2): 321.35 ± 45.66 mm^3
Tumor Volume ([2]; 50 mg/kg, QD × 4 weeks, p.o., day 6): 493.84 ± 65.13 mm^3
Tumor Volume ([2]; 50 mg/kg, QD × 4 weeks, p.o., day 9): 695.20 ± 66.81 mm^3
T/C (%) [2, 5]: 35.1%
TGI (%) [2, 5]: 64.9%
Tumor Volume [2, 5]: 891.50 ± 103.33 mm^3
Tumor Volume ([2]; 50 mg/kg, QD × 4 weeks, p.o., day 16): 1135.40 ± 133.62 mm^3
Tumor Volume ([2]; 50 mg/kg, QD × 4 weeks, p.o., day 20): 1478.84 ± 189.62 mm^3
Tumor Volume ([2]; 50 mg/kg, QD × 4 weeks, p.o., day 23): 1627.4 ± 202.91 mm^3
Tumor Volume ([2]; 50 mg/kg, QD × 4 weeks, p.o., day 27): 1829.66 ± 256.4 mm^3

B1: 3C23K anti-AMHRII monoclonal antibody (antibody, human IgG1, kappa, V domains shown)
VH: QVRLVQSGAEVKKPGASVKVSCKASGYTFTSYHIHWVRQAPGQRLEWMGWIYPGDDSTKYSQKFQGRVTITRDTSASTAYMELSSLRSEDTAVYYCTRGDRFAYWGQGTLVTVSS
VL: DIQMTQSPSTLSASVGDRVTITCRASSSVRYIAWYQQKPGKAPKLLTYPTSSLKSGVPSRFSGSGSGTEFTLTISSLQPDDFATYYCLQWSSYPWTFGGGTKVEIKR
notes: Humanized antibody; also called GM102; GamaMabs's Ab
Kd [3]: 0.0553 nM

B2: 3C23K: humanized anti-AMHRII monoclonal antibody; VH SEQ ID NO 19, VL SEQ ID NO 36 (antibody, V domains shown)
VH: B1 VH
VL: DIQMTQSPSTLSASVGDRVTITCRASSSVRYIAWYQQKPGKAPKLLTYPTSSLKSGVPSRFSGSGSGTEFTLTISSLQPDDFATYYCLQWSSYPWTFGGGTKVEIK
modifications: Synthetic 3C23K/3C23; Synthetic 3C23K
body weight change at study termination ([1]; 20 mg/kg, BIW × 4 weeks, i.v.): 2.68%
body weight change at study termination ([1]; 50 mg/kg, BIW × 4 weeks, i.v.): -0.38%
tolerability / toxic events (in words) [1]: no detectable toxic event
tolerability / toxic events (in words) ([1]; listed as GM102): not accompanied by any toxic event
tolerability / toxic events (in words) ([1]; listed as GamaMabs's Ab): No animal death or significant body weight loss; also recorded: well tolerated
in vivo anti-tumor effect against AMHRII-expressing human colorectal tumor (in words, FIG. 10) [4]: efficient in vivo anti-tumor effect; also recorded: indistinguishable from the anti-tumor effect of the mainly used anti-colon cancer molecule Irinotecan
T-C (days) at 1000 mm^3 ([2]; 20 mg/kg, BIW × 4 weeks, i.v.): 3 days
Tumor Volume ([2]; 20 mg/kg, BIW × 4 weeks, i.v., day 0): 145.15 ± 16.79 mm^3
Tumor Volume ([2]; 20 mg/kg, BIW × 4 weeks, i.v., day 2): 358.57 ± 51.86 mm^3
Tumor Volume ([2]; 20 mg/kg, BIW × 4 weeks, i.v., day 6): 665.09 ± 85.00 mm^3
Tumor Volume ([2]; 20 mg/kg, BIW × 4 weeks, i.v., day 9): 952.12 ± 171.45 mm^3
T/C (%) [2, 6]: 48.7%
TGI (%) ([2]; 20 mg/kg, BIW × 4 weeks, i.v., day 13, listed as GamaMabs's Ab): 51.3%
Tumor Volume [2, 6]: 1179.90 ± 232.26 mm^3
Tumor Volume ([2]; 20 mg/kg, BIW × 4 weeks, i.v., day 16): 1479.51 ± 292.49 mm^3
Tumor Volume ([2]; 20 mg/kg, BIW × 4 weeks, i.v., day 20): 1973.13 ± 372.07 mm^3
Tumor Volume ([2]; 20 mg/kg, BIW × 4 weeks, i.v., day 23): 1814.59 ± 231.17 mm^3
Tumor Volume ([2]; 20 mg/kg, BIW × 4 weeks, i.v., day 27): 2081.67 ± 213.28 mm^3
T-C (days) at 1000 mm^3 ([2]; 50 mg/kg, BIW × 4 weeks, i.v.): 5 days
Tumor Volume ([2]; 50 mg/kg, BIW × 4 weeks, i.v., day 0): 145.24 ± 16.38 mm^3
Tumor Volume ([2]; 50 mg/kg, BIW × 4 weeks, i.v., day 2): 297.78 ± 46.32 mm^3
Tumor Volume ([2]; 50 mg/kg, BIW × 4 weeks, i.v., day 6): 532.71 ± 104.17 mm^3
Tumor Volume ([2]; 50 mg/kg, BIW × 4 weeks, i.v., day 9): 751.81 ± 176.15 mm^3
T/C (%) [2, 7]: 45.7%
TGI (%) ([2]; 50 mg/kg, BIW × 4 weeks, i.v., day 13, listed as GamaMabs's Ab): 54.3%
Tumor Volume [2, 7]: 1117.12 ± 302.85 mm^3
Tumor Volume ([2]; 50 mg/kg, BIW × 4 weeks, i.v., day 16): 1476.74 ± 407.93 mm^3
Tumor Volume ([2]; 50 mg/kg, BIW × 4 weeks, i.v., day 20): 1602.61 ± 481.85 mm^3
Tumor Volume ([2]; 50 mg/kg, BIW × 4 weeks, i.v., day 23): 1148.22 ± 381.49 mm^3
Tumor Volume ([2]; 50 mg/kg, BIW × 4 weeks, i.v., day 27): 1454.47 ± 479.27 mm^3
anti-tumor activity against HCC xenograft (in words) [2]: of the same order of magnitude as sorafenib
anti-tumor activity against HCC xenograft (in words) ([2]; listed as GamaMabs's Ab): close to that induced by sorafenib
